± gives the standard deviation of the averaged measurements.

This data set can be described thus: total protein half-life in vivo (active degradation + dilution); higher = more stable protein.
Where [1] appears, read: E. coli NCM3722 delta-hslV, growth: N-lim chemostat, doubling time 6 h.
The mark [2] stands for this setting: E. coli NCM3722 delta-lon, growth: N-lim chemostat, doubling time 6 h.
[3] abbreviates: E. coli NCM3722 delta-smpB, growth: N-lim chemostat, doubling time 6 h.
[4] abbreviates: wild type E. coli NCM3722, growth: C-lim chemostat, doubling time 3 h.
[5] abbreviates: wild type E. coli NCM3722, growth: C-lim chemostat, doubling time 6 h.
[6] abbreviates: wild type E. coli NCM3722, growth: C-lim chemostat, doubling time 12 h.
The mark [7] stands for this setting: wild type E. coli NCM3722, growth: N-lim chemostat, doubling time 6 h.
Where [8] appears, read: wild type E. coli NCM3722, growth: N-lim chemostat, doubling time 12 h.
[9] abbreviates: wild type E. coli NCM3722, growth: P-lim chemostat, doubling time 6 h.
Setting [10] is: wild type E. coli NCM3722, growth: P-lim chemostat, doubling time 12 h.
Where [11] appears, read: E. coli NCM3722 delta-clpP delta-lon delta-hslV, growth: N-lim chemostat, doubling time 6 h.
The mark [12] stands for this setting: E. coli NCM3722 delta-clpP, growth: N-lim chemostat, doubling time 6 h.

Consider “MEFTTGLMSLDTALNEMLSRVTPLTAQETLPLVQCFGRILASDVVSPLDVPGFDNSAMDGYAVRLADIASGQPLPVAGKSFAGQPYHGEWPAGTCIRIMTGAPVPEGCEAVVMQEQTEQMDNGVRFTAEVRSGQNIRRRGEDISAGAVVFPAGTRLTTAELPVIASLGIAEVPVIRKVRVALFSTGDELQLPGQPLGDGQIYDTNRLAVHLMLEQLGCEVINLGIIRDDPHALRAAFIEADSQADVVISSGGVSVGEADYTKTILEELGEIAFWKLAIKPGKPFAFGKLSNSWFCGLPGNPVSATLTFYQLVQPLLAKLSGNTASGLPARQRVRTASRLKKTPGRLDFQRGVLQRNADGELEVTTTGHQGSHIFSSFSLGNCFIVLERDRGNVEVGEWVEVEPFNALFGGL”, for which the “total protein half-life in vivo” value stood at 4.41 ± 0.22 h under setting [1]; 4.63 ± 0.21 h under setting [2]; 4.88 ± 0.29 h under setting [3]; 2.741 ± 0.013 h under setting [4]; 4.96 ± 0.85 h under setting [5]; 11.1 ± 0.4 h under setting [6]. The “total protein half-life in vivo” value runs as follows: under setting [7], 4.07 ± 0.22 h; under setting [8], 7.4293 ± 0.003 h; under setting [9], 5.64 ± 0.34 h; under setting [10], 11.1 ± 1.6 h.
Take “MRVVILGSGVVGVASAWYLNQAGHEVTVIDREPGAALETSAANAGQISPGYAAPWAAPGVPLKAIKWMFQRHAPLAVRLDGTQFQLKWMWQMLRNCDTSHYMENKGRMVRLAEYSRDCLKALRAETNIQYEGRQGGTLQLFRTEQQYENATRDIAVLEDAGVPYQLLESSRLAEVEPALAEVAHKLTGGLQLPNDETGDCQLFTQNLARMAEQAGVKFRFNTPVDQLLCDGEQIYGVKCGDEVIKADAYVMAFGSYSTAMLKGIVDIPVYPLKGYSLTIPIAQEDGAPVSTILDETYKIAITRFDNRIRVGGMAEIVGFNTELLQPRRETLEMVVRDLYPRGGHVEQATFWTGLRPMTPDGTPVVGRTRFKNLWLNTGHGTLGWTMACGSGQLLSDLLSGRTPAIPYEDLSVARYSRGFTPSRPGHLHGAHS [P0A6J5]”: the “total protein half-life in vivo” value under setting [11] amounted to 2.86 ± 0.088 h; the “total protein half-life in vivo” value under setting [12] came out at 1.88 ± 0.14 h; the “total protein half-life in vivo” value under setting [1] turned out to be 2.16 ± 0.24 h; the “total protein half-life in vivo” value under setting [2] was found to be 2.06 h; the “total protein half-life in vivo” value under setting [3] is 1.95 ± 0.12 h; the “total protein half-life in vivo” value under setting [4] turned out to be 1.01 ± 0.16 h. The “total protein half-life in vivo” value was 1.65 ± 0.11 h under setting [5]; 2.68 ± 0.58 h under setting [6]; 2.04 ± 0.17 h under setting [7]; 3.35 ± 0.27 h under setting [8]; 2.27 ± 0.23 h under setting [9]; 4.77 ± 0.97 h under setting [10].
In the case of “MLTIQFLCPLPNGLHARPAWELKEQCSQWQSEITFINHRQNAKADAKSSLALIGTGTLFNDSCSLNISGSDEEQARRVLEEYIQVRFIDSDSVQPTQAELTAHPLPRSLSRLNPDLLYGNVLASGVGVGTLTLLQSDSLDSYRAIPASAQDSTRLEHSLATLAEQLNQQLRERDGESKTILSAHLSLIQDDEFAGNIRRLMTEQHQGLGAAIISNMEQVCAKLSASASDYLRERVSDIRDISEQLLHITWPELKPRNKLVLEKPTILVAEDLTPSQFLSLDLKNLAGMILEKTGRTSHTLILARASAIPVLSGLPLDAIARYAGQPAVLDAQCGVLAINPNDAVSGYYQVAQTLADKRQKQQAQAAAQLAYSRDNKRIDIAANIGTALEAPGAFANGAEGVGLFRTEMLYMDRDSAPDEQEQFEAYQQVLLAAGDKPIIFRTMDIGGDKSIPYLNIPQEENPFLGYRAVRIYPEFAGLFRTQLRAILRAASFGNAQLMIPMVHSLDQILWVKGEIQKAIVELKRDGLRHAETITLGIMVEVPSVCYIIDHFCDEVDFFSIGSNDMTQYLYAVDRNNPRVSPLYNPITPSFLRMLQQIVTTAHQRGKWVGICGELGGESRYLPLLLGLGLDELSMSSPRIPAVKSQLRQLDSEACRELARQACECRSAQEIEALLTAFTPEEDVRPLLALENIFVDQDFSNKEQAIQFLCGNLGVNGRTEHPFELEEDVWQREEIVTTGVGFGVAIPHTKSQWIRHSSISIARLAKPIGWQSEMGEVELVIMLTLGANEGMNHVKVFSQLARKLVNKNFRQSLFAAQDAQSILTLLETELTF”, the “total protein half-life in vivo” value came to 6.54 h under setting [11], 2.21 h under setting [3], 2.36 h under setting [4] and 3.21 h under setting [9].
Regarding “MYQDLIRNELNEAAETLANFLKDDANIHAIQRAAVLLADSFKAGGKVLSCGNGGSHCDAMHFAEELTGRYRENRPGYPAIAISDVSHISCVGNDFGFNDIFSRYVEAVGREGDVLLGISTSGNSANVIKAIAAAREKGMKVITLTGKDGGKMAGTADIEIRVPHFGYADRIQEIHIKVIHILIQLIEKEMVK”, the “total protein half-life in vivo” value was determined as 4.5 ± 0.5 h under setting [11]; 4.44 ± 0.26 h under setting [12]; 4.63 ± 0.36 h under setting [1]; 5.19 ± 0.35 h under setting [2]; 4.26 ± 0.082 h under setting [3]; 3.04 ± 0.14 h under setting [4]. In addition, the “total protein half-life in vivo” value is, setting by setting: under setting [5], 5.89 ± 0.46 h; under setting [6], 11 ± 0.45 h; under setting [7], 4.37 ± 0.08 h; under setting [8], 7.07 ± 0.52 h; under setting [9], 5.73 ± 0.15 h; under setting [10], 11.13 ± 0.11 h.
In the case of “MKFSELWLREWVNPAIDSDALANQITMAGLEVDGVEPVAGSFHGVVVGEVVECAQHPNADKLRVTKVNVGGDRLLDIVCGAPNCRQGLRVAVATIGAVLPGDFKIKAAKLRGEPSEGMLCSFSELGISDDHSGIIELPADAPIGTDIREYLKLDDNTIEISVTPNRADCLGIIGVARDVAVLNQLPLVQPEIVPVGATIDDTLPITVEAPEACPRYLGRVVKGINVKAPTPLWMKEKLRRCGIRSIDAVVDVTNYVLLELGQPMHAFDKDRIEGGIVVRMAKEGETLVLLDGTEAKLNADTLVIADHNKALAMGGIFGGEHSGVNDETQNVLLECAFFSPLSITGRARRHGLHTDASHRYERGVDPALQHKAMERATRLLIDICGGEAGPVIDITNEATLPKRATITLRRSKLDRLIGHHIADEQVTDILRRLGCEVTEGKDEWQAVAPSWRFDMEIEEDLVEEVARVYGYNNIPDEPVQASLIMGTHREADLSLKRVKTLLNDKGYQEVITYSFVDPKVQQMIHPGVEALLLPSPISVEMSAMRLSLWTGLLATVVYNQNRQQNRVRIFESGLRFVPDTQAPLGIRQDLMLAGVICGNRYEEHWNLAKETVDFYDLKGDLESVLDLTGKLNEVEFRAEANPALHPGQSAAIYLKGERIGFVGVVHPELERKLDLNGRTLVFELEWNKLADRVVPQAREISRFPANRRDIAVVVAENVPAADILSECKKVGVNQVVGVNLFDVYRGKGVAEGYKSLAISLILQDTSRTLEEEEIAATVAKCVEALKERFQASLRD”, the “total protein half-life in vivo” value under setting [11] worked out at 6.244 ± 0.025 h; the “total protein half-life in vivo” value under setting [12] turned out to be 5.88 ± 0.61 h; the “total protein half-life in vivo” value under setting [1] worked out at 5.77 ± 0.16 h; the “total protein half-life in vivo” value under setting [2] came out at 5.98 ± 0.44 h; the “total protein half-life in vivo” value under setting [3] is 5.33 ± 0.063 h; the “total protein half-life in vivo” value under setting [4] worked out at 3.37 ± 0.066 h. Also, the “total protein half-life in vivo” value came out at 6.34 ± 0.37 h under setting [5]; 12.5 ± 0.56 h under setting [6]; 5.41 ± 0.088 h under setting [7]; 10.4 ± 0.24 h under setting [8]; 6.01 ± 0.4 h under setting [9]; 12 ± 0.58 h under setting [10].
